Reference: patent US20250026827A1 (Alector, published 2025)
Numbering of substitutions follows the chain as printed. Blank lines part the entries; values can stand above or below the binder they belong to.

Assays:
[1] = biological target: T1, human SIRPβ1 domain 1 (D1) Fc fusion (human, UniProt O00241 30-148); test: Octet, IgG avid
T1 construct: Made in HEK293/T cells with a heterologous signal peptide; also called Human SIRPβ1 D1-Fc; Human SIRPβ1-Fc; not shown: C-terminal human IgG1 Fc

[2] = biological target: T2, mouse SIRPβ1 on CHO cells (mouse); test: flow cytometry;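 as to FOB: antibodies tested at 1 µg/ml for 30 min on ice against receptor-expressing cells, detected with a PE-labelled secondary antibody, read as mean fluorescence intensity relative to background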
T2 construct: Whole entry
T2 chain: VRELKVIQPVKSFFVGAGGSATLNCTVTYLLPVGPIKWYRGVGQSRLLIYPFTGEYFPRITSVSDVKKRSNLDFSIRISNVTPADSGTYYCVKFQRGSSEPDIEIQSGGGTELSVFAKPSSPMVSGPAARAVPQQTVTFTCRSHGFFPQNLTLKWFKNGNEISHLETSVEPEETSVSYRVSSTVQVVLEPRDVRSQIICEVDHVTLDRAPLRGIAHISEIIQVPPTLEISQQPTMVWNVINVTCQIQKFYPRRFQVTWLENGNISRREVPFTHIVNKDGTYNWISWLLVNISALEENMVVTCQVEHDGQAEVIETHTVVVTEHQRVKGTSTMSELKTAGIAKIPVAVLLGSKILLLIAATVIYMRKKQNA
Method: (§1) Initial characterization of anti-SIRPβ1 antibodies involved determining their ability to bind cell lines expressing human or mouse SIRPβ1. Cells were harvested, plated at 10⁶/ml in a 96-well plate, washed, and incubated in 100 μl FACS buffer containing 1 μg/ml anti-SIRPβ1 antibody for 0.5 hour on ice. Cells were then washed twice and incubated in 100 μl FACS buffer containing 0.5 μg/ml PE-conjugated secondary antibody for 30 minutes on ice. Cells were washed twice in cold FACS buffer and acquired on a BD FACS Canto. Data analysis and calculation of mean fluorescence intensity (MFI) values or 00 positive cells was performed with FlowJo (TreeStar) software version 10.0.7.
(§2) As a negative control, the anti-SIRPβ1 antibodies were also screened for surface binding to CHO cells overexpressing recombinant mouse SIRPβ31. […] Given the high sequence similarity between receptors of the SIRPβ family, anti-SIRPβ1 antibodies were also screened for cross-reactivity to human and mouse SIRPα.

[3] = biological target: T3, mouse SIRPα on cells (mouse, UniProt P97797 32-513); test: flow cytometry;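 as to FOB: antibodies tested at 1 µg/ml for 30 min on ice against receptor-expressing cells, detected with a PE-labelled secondary antibody, read as mean fluorescence intensity relative to background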
T3 construct: whole, on cells
T3 sequence (looked up): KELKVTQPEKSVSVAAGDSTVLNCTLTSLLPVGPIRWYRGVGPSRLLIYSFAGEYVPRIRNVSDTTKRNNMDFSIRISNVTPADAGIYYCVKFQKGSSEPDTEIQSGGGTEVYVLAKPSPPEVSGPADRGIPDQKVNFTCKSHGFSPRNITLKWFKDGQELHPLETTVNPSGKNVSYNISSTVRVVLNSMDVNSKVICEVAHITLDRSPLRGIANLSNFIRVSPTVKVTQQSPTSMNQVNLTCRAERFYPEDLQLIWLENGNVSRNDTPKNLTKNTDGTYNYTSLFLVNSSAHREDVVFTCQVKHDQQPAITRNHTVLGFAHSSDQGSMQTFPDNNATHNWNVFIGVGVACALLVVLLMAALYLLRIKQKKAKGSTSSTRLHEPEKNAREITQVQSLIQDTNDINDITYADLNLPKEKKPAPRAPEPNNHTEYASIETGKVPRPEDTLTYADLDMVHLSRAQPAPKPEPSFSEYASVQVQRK
Method: as §1, §2

[4] = biological target: T4, human SIRPα on cells (human, UniProt P78324 31-504); test: flow cytometry;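 as to FOB: antibodies tested at 1 µg/ml for 30 min on ice against receptor-expressing cells, detected with a PE-labelled secondary antibody, read as mean fluorescence intensity relative to background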
T4 construct: Whole entry
Method: as §1, §2

[5] = biological target: T5, human SIRPβ1 isoform 1 on cells (human, UniProt O00241 30-398); test: flow cytometry;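 also: antibodies tested at 1 µg/ml for 30 min on ice against receptor-expressing cells, detected with a PE-labelled secondary antibody, read as mean fluorescence intensity relative to background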
T5 construct: On CHO cells (low level), on BWZ/BW5147.G.1.4 cells (reporter cells co-express human DAP12) or on primary human myeloid cells; also called huSIRPβ1; BWZ-huSIRPβ1
T5 sequence (O00241 30-398): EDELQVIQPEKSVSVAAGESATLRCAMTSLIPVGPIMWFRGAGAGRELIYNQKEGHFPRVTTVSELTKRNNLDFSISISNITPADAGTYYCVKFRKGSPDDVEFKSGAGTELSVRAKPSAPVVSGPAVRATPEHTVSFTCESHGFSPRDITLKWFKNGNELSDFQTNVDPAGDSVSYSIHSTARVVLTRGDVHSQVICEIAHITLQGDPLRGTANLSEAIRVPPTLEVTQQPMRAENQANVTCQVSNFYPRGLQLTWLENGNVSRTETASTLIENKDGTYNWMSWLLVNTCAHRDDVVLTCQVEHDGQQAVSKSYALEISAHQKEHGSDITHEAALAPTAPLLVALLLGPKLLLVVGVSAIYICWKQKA
Method: as §1, §2

[6] = biological target: T6, human SIRPα domain 1 (D1) Fc fusion (human, UniProt P78324 32-149); test: Octet
T6 construct: also called human SIRPα D1-Fc; Human SIRPα Fc; not shown: C-terminal human IgG1 Fc

[7] = biological target: T7, mouse SIRPα D1-Fc (mouse, UniProt P97797 32-150, limits assumed); test: Octet
T7 construct: domain: D1
T7 sequence (looked up): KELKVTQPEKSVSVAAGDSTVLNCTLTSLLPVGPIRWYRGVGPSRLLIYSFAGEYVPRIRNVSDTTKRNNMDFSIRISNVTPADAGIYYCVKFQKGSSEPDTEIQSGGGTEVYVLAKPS

[8] = biological target: T2, mouse SIRPβ1 on CHO cells; test: flow cytometry
[9] = biological target: T3, mouse SIRPα on cells; test: flow cytometry; remark: listed apart in the source
[10] = biological target: T4, human SIRPα on cells; test: flow cytometry; remark: listed apart in the source

T1 sequence (O00241 30-148 limits assumed): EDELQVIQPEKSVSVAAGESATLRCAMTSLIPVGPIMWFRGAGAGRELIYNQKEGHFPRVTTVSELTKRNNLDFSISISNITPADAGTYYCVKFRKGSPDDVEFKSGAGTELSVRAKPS

Kd [1]: 3.66 nM
FOB [2]: 1 fold over background
FOB [3]: 0.8 fold over background
FOB [4]: 2.1 fold over background
FOB [5]: 1.8 fold over background
binding result [6]: no binding (tested: 100 nM)
binding result [7]: no binding (tested: 100 nM)
binding result [8]: no binding (tested: 1 ug/ml)
binding result [9]: no binding (tested: 1 ug/ml)
binding result [10]: no binding (tested: 1 ug/ml)
B1: SB-9 (antibody, V domains shown)
VH: QVQLVQSGAEVKKPGASVKVSCKASGYTFTSYGIHWVRQAPGQGLEWMGWISAYNGNTNYAQKLQGRVTMTTDTSTSTAYMELRSLRSDDTAVYYCARDGLHYGDYIVYYGMDVWGQGTTVTVSS
VL: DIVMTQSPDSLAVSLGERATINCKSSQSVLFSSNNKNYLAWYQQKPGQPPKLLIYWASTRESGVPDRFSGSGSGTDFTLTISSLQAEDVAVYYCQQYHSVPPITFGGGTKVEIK
notes: IgG

Kd [1]: 4.94 nM
FOB [2]: 1.3 fold over background
FOB [3]: 1.2 fold over background
FOB [4]: 2 fold over background
FOB [5]: 1.6 fold over background
binding result [6]: no binding (tested: 100 nM)
binding result [7]: no binding (tested: 100 nM)
binding result [8]: no binding (tested: 1 ug/ml)
binding result [9]: no binding (tested: 1 ug/ml)
binding result [10]: no binding (tested: 1 ug/ml)
B2: SB-12 (antibody, V domains shown)
VH: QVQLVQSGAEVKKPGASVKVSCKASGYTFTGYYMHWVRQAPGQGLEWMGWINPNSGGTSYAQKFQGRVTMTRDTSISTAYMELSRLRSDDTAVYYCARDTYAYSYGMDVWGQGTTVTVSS
VL: EIVMTQSPATLSVSPGERATLSCRASQSVSSNLAWYQQKPGQAPRLLIYSASTRATGIPARFSGSGSGTEFTLTISSLQSEDFAVYYCQQLDNLPYTFGGGTKVEIK
notes: IgG

Kd [1]: 3.75 nM
FOB [2]: 1.4 fold over background
FOB [3]: 1 fold over background
FOB [4]: 1.8 fold over background
FOB [5]: 3.1 fold over background
binding result [6]: no binding (tested: 100 nM)
binding result [7]: no binding (tested: 100 nM)
binding result [8]: no binding (tested: 1 ug/ml)
binding result [9]: no binding (tested: 1 ug/ml)
binding result [10]: no binding (tested: 1 ug/ml)
B3: SB-31 (antibody, V domains shown)
VH: QVQLVQSGAEVKKPGASVKVSCKASGYTFTSYYMHWVRQAPGQGLEWMGIINPGGGSTSYAQKFQGRVTMTRDTSTSTVYMELSSLRSEDTAVYYCAREGLYSSGWYIDVWGQGTLVTVSS
VL: DIQMTQSPSSVSASVGDRVTITCRASQGISSWLAWYQQKPGKAPKLLIYAASSLQSGVPSRFSGSGSGTDFTLTISSLQPEDFATYYCQQAVSHPFTFGGGTKVEIK
notes: IgG

Kd [1]: 7.33 nM
FOB [2]: 1.3 fold over background
FOB [3]: 1.1 fold over background
FOB [4]: 2.1 fold over background
FOB [5]: 1.5 fold over background
binding result [6]: no binding (tested: 100 nM)
binding result [7]: no binding (tested: 100 nM)
binding result [8]: no binding (tested: 1 ug/ml)
binding result [9]: no binding (tested: 1 ug/ml)
binding result [10]: no binding (tested: 1 ug/ml)
B4: SB-38 (antibody, V domains shown)
VH: QVQLVQSGAEVKKPGASVKVSCKASGYTFTSYYMHWVRQAPGQGLEWMGIINPSGGSTSYAQKFQGRVTMTRDTSTSTVYMELSSLRSEDTAVYYCARESGTDFGTISYWGQGTLVTVSS
VL: B3 VL with H94Y, F96I
notes: IgG

Kd [1]: 12.3 nM
FOB [2]: 1.2 fold over background
FOB [3]: 1.2 fold over background
FOB [4]: 2.7 fold over background
FOB [5]: 3.3 fold over background
binding result [6]: no binding (tested: 100 nM)
binding result [7]: no binding (tested: 100 nM)
binding result [8]: no binding (tested: 1 ug/ml)
binding result [9]: no binding (tested: 1 ug/ml)
binding result [10]: no binding (tested: 1 ug/ml)
B5: SB-42 (antibody, V domains shown)
VH: QVQLVQSGAEVKKPGASVKVSCKASGYTFTSYGISWVRQAPGQGLEWMGWISAYNGNTNYAQKLQGRVTMTTDTSTSTAYMELRSLRSDDTAVYYCARGPGHYYVAGMDVWGQGTTVTVSS
VL: EIVMTQSPATLSVSPGERATITCRASQSISSYLNWYQQKPGKAPKLLIYSASSLQSGVPSRFSGSGSGTDFTLTISSLQPEDFATYYCQQGDSFPITFGGGTKVEIK
notes: IgG

Kd [1]: 9.23 nM
FOB [2]: 1.3 fold over background
FOB [3]: 1.4 fold over background
FOB [4]: 2.2 fold over background
FOB [5]: 1.4 fold over background
binding result [6]: no binding (tested: 100 nM)
binding result [7]: no binding (tested: 100 nM)
binding result [8]: no binding (tested: 1 ug/ml)
binding result [9]: no binding (tested: 1 ug/ml)
binding result [10]: no binding (tested: 1 ug/ml)
B6: SB-33 (antibody, V domains shown)
VH: EVQLVESGGGLVQPGGSLRLSCAASGFTVSSNYMSWVRQAPGKGLEWVSVIYSGGSTYYADSVKGRFTISRDNSKNTLYLQMNSLRAEDTAVYYCARGQYTGSLDVWGQGTMVTVSS
VL: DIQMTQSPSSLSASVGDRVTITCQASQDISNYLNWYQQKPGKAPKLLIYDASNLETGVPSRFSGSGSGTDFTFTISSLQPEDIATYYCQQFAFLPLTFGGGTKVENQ
notes: IgG

Kd [1]: 7.47 nM
FOB [2]: 1.1 fold over background
FOB [3]: 1 fold over background
FOB [4]: 2.6 fold over background
FOB [5]: 2.1 fold over background
binding result [6]: no binding (tested: 100 nM)
binding result [7]: no binding (tested: 100 nM)
binding result [8]: no binding (tested: 1 ug/ml)
binding result [9]: no binding (tested: 1 ug/ml)
binding result [10]: no binding (tested: 1 ug/ml)
B7: SB-35 (antibody, V domains shown)
VH: QVQLVQSGAEVKKPGSSVKVSCKASGGTFSSYAISWVRQAPGQGLEWMGGIIPIFGTANYAQKFQGRVTITADESTSTAYMELSSLRSEDTAVYYCARGRPQSESYLLDYWGQGTLVTVSS
VL: not shown
notes: IgG

Kd [1]: 10.7 nM
FOB [2]: 1.2 fold over background
FOB [3]: 0.9 fold over background
FOB [4]: 1.9 fold over background
FOB [5]: 1.8 fold over background
binding result [6]: no binding (tested: 100 nM)
binding result [7]: no binding (tested: 100 nM)
binding result [8]: no binding (tested: 1 ug/ml)
binding result [9]: no binding (tested: 1 ug/ml)
binding result [10]: no binding (tested: 1 ug/ml)
B8: SB-29 (antibody, V domains shown)
VH: QVQLVQSGAEVKKPGSSVKVSCKASGGTFSSYAISWVRQAPGQGLEWMGSIIPIFGTANYAQKFQGRVTITADESTSTAYMELSSLRSEDTAVYYCARAPYGSSSGYGYFDLWGRGTLVTVSS
VL: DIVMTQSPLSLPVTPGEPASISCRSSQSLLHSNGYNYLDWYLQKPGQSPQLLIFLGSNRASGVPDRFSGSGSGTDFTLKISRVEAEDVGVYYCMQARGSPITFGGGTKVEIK
notes: IgG

Kd [1]: 3.69 nM
FOB [2]: 1.2 fold over background
FOB [3]: 0.9 fold over background
FOB [4]: 2.3 fold over background
FOB [5]: 6.3 fold over background
binding result [6]: no binding (tested: 100 nM)
binding result [7]: no binding (tested: 100 nM)
binding result [8]: no binding (tested: 1 ug/ml)
binding result [9]: no binding (tested: 1 ug/ml)
binding result [10]: no binding (tested: 1 ug/ml)
B9: SB-11 (antibody, V domains shown)
VH: QVQLVQSGAEVKKPGSSVKVSCKASGGTFSNYAISWVRQAPGQGLEWMGGIIPIFGTANYAQKFQGRVTITADESTSTAYMELSSLRSEDTAVYYCARPVDSSSYSLGYYYGMDVWGKGTTVTVSS
VL: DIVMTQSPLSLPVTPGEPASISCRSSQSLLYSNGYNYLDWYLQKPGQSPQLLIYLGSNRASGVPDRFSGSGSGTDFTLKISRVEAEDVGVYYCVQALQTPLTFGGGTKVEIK
notes: IgG

Kd [1]: 7.5 nM
FOB [2]: 1.2 fold over background
FOB [3]: 1 fold over background
FOB [4]: 2.2 fold over background
FOB [5]: 3.8 fold over background
binding result [6]: no binding (tested: 100 nM)
binding result [7]: no binding (tested: 100 nM)
binding result [8]: no binding (tested: 1 ug/ml)
binding result [9]: no binding (tested: 1 ug/ml)
binding result [10]: no binding (tested: 1 ug/ml)
B10: SB-37 (antibody, V domains shown)
VH: QVQLVQSGAEVKKPGSSVKVSCKASGGTFSNYAISWVRQAPGQGLEWMGGIIPIFGTANYAQKFQGRVTITADESTSTAYMELSSLRSEDTAVYYCARSRWGASGYYYYMDVWGQGTMVTVSS
VL: EIVLTQSPATLSLSPGERATLSCRASQSVSSYLAWYQQKPGQAPRLLIYDASNRATGIPARFSGSGSGTDFTLTISSLEPEDFAVYYCQQRHTYPLTFGGGTKVEIK
notes: IgG
